{"source": "paper PMC12680351", "about": "“The novel GlcNAc 6-phosphate dehydratase NagS governs a metabolic checkpoint that controls nutrient signaling in Streptomyces” (PLOS Biology, 2025)", "molecules": {"B1": {"name": "GlcNAc-6P dehydratase NagS (SCO4393) of Streptomyces coelicolor (enzyme, UniProt Q9K3V1 1-251, looked up)", "chain": "MSDHKPAGQFLDAAIDLLRRVRDEEADSIEAAGTLLADTVQNGGRLFAFGAGHSSLAAQDVVYRAGGLALMNLLTVPGVVGIDVMPATLGSALERVDGLASAVLDSSPLRAGDALVIISLSGRNALPVEMAMHARALGLRVIGVTSVAYASQTTSRHASGTFLKDHCDIVLDSKIAVGDAELTLDTVPAPFAPASTVVTAALMQAVTATAAATLADRGIEPPLLRSGNVDGGHEWNARVLEQYGERIFYRR", "notes": "NagS (SCO4393), Streptomyces coelicolor A3(2) M145; calculated mass of the NagS-His6 monomer 28.29 kDa; The methods say N-terminally His6-tagged (pET-15b); the results write NagS-His6; also called NagS-His6; N-acetylglucosamine-6-phosphate dehydratase; source: E. coli Rosetta (DE3)pLysS, purified (Ni-NTA, size-exclusion chromatography on Superdex 200); not shown: His6, N-terminal, kept"}, "B2": {"name": "NagA (Streptomyces coelicolor A3(2)) (protein)", "chain": "MAPSKVLAGARVVLPTGTVDDGRVIVDGARIADTAPPQAETVDLAGHWVVPGFVDIHNHGGGGASFAGGTAEEILAGVETHRRHGTTTVVASAVTGDLDFLARHAGMLAELAQQGDIVGIHFEGPFISPCRKGAHDEQLLRDPDPAEVRKLVDAAHGHAKMMTLATELPGGLDSVRLLVEHGVIAAVGHTDATYEQTVQAIDAGATVATHLFNAMPPVGHRAPGPITALLEDERITVELINDGTHLHPAALQLAFHHAGAARVAFITDAMDAAGFGDGHYLLGPLEVEVADGVARLVEGGSIAGSTLTLDRAFKRAVTVDRLPVGDVVAAISANPARLLGLDDRIGSLEPGKDADLVVLDDAFDLVGVMRRGEWVVDPHLG"}}, "key": {"NagS [1]": {"molecular_target": "T1, NagS (Streptomyces coelicolor, UniProt Q9K3V1)", "T1 construct": "gene SCO4393; N-terminally His6-tagged NagS", "T1 sequence (Q9K3V1 1-251)": "B1 chain", "assay": "X-ray crystal structure ([…] Å); competitive inhibition kinetics; thermal denaturation", "format": "biochemical"}, "NagS [2]": {"molecular_target": "T2, NagS (Streptomyces coelicolor, UniProt Q9K3V1, S54A)", "T2 construct": "gene SCO4393", "T2 sequence (Q9K3V1 whole entry S54A)": "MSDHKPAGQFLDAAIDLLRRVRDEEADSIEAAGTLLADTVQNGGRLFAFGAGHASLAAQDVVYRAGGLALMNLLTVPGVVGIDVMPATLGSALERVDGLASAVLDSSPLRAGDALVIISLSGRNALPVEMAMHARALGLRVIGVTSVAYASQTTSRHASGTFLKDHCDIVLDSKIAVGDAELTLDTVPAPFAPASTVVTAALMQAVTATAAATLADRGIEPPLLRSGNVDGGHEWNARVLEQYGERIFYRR", "format": "biochemical"}, "purified protein [3]": {"substrate": "CC(=O)N[C@@H]1C(O)O[C@H](COP(=O)(O)O)[C@@H](O)[C@@H]1O", "assay": "purified protein"}, "purified protein [4]": {"substrate": "CC(=O)N[C@H]1C(O)O[C@H](COP(=O)(O)O)[C@@H](O)[C@@H]1O", "assay": "purified protein"}, "[5]": {"molecular_target": "the molecule itself", "assay": "SEC; analytical size-exclusion chromatography, Superdex 200 10/300 GL, NagS at 35 uM and 70 uM, 20 mM HEPES pH 7.5, 300 mM NaCl, 5% glycerol, 1 mM DTT; calibrated with a protein standard mix (15-600 kDa)"}, "purified protein [6]": {"substrate": "CC(=O)N[C@H]1C(O)O[C@H](COP(=O)(O)O)[C@H](O)[C@@H]1O", "assay": "purified protein", "conditions": "divalent metal cation ([…] ZnCl2 supplemented during expression)"}, "[7]": {"conditions": "catalytic site formed by both monomers, Ser54, Ser91, Glu94, Ser119, Ser121, His53 main chain, ArgB64, AsnB228, AlaB65, GlyB227"}, "[8]": {"conditions": "divalent metal cation ([…] ZnCl2 supplemented during expression)"}}, "note": "Read-outs that look alike come from different tables or passages of the source.", "data": [{"molecule": "O=C(O)[C@H](O)[C@@H](O)[C@H](O)[C@H](O)COP(=O)(O)O", "note": "[6-phosphogluconate]", "values": [{"measurement": "Ki", "setting": "NagS [1]", "value": "280 ± 30", "unit": "µM"}]}, {"molecule": "CC(=O)N[C@H]1C(O)O[C@H](COP(=O)(O)O)[C@@H](O)[C@@H]1O", "note": "(stereo partly drawn) [GlcNAc-6P]", "values": [{"measurement": "Km", "setting": "NagS [2]", "value": "850 ± 90", "unit": "µM"}]}, {"molecule": "B1", "values": [{"measurement": "Km", "setting": "purified protein [3]", "value": "680 ± 50", "unit": "µM"}, {"measurement": "kcat", "setting": "purified protein [3]", "value": "0.9 ± 0.02", "unit": "s⁻¹"}, {"measurement": "kcat/Km", "setting": "purified protein [3]", "value": 1320, "unit": "M⁻¹ s⁻¹"}, {"measurement": "Km", "setting": "purified protein [4]; [7]", "value": "450 ± 30", "unit": "µM"}, {"measurement": "kcat", "setting": "purified protein [4]; [7]", "value": "24.7 ± 0.38", "unit": "s⁻¹"}, {"measurement": "kcat/Km", "setting": "purified protein [4]; [7]", "value": 54800, "unit": "M⁻¹ s⁻¹"}, {"measurement": "stoichiometry N", "setting": "[5]", "value": 2}]}, {"molecule": "B2", "values": [{"measurement": "Km", "setting": "purified protein [3]; [8]", "value": "2400 ± 440", "unit": "µM"}, {"measurement": "kcat", "setting": "purified protein [3]; [8]", "value": "14.6 ± 1.1", "unit": "s⁻¹"}, {"measurement": "kcat/Km", "setting": "purified protein [3]; [8]", "value": 6060, "unit": "M⁻¹ s⁻¹"}, {"measurement": "Km", "setting": "purified protein [4]; [8]", "value": "1590 ± 210", "unit": "µM"}, {"measurement": "kcat", "setting": "purified protein [4]; [8]", "value": "160 ± 9.02", "unit": "s⁻¹"}, {"measurement": "kcat/Km", "setting": "purified protein [4]; [8]", "value": 101000, "unit": "M⁻¹ s⁻¹"}, {"measurement": "Km", "setting": "purified protein [6]", "value": "2840 ± 410", "unit": "µM"}, {"measurement": "kcat", "setting": "purified protein [6]", "value": "29.2 ± 2.31", "unit": "s⁻¹"}, {"measurement": "kcat/Km", "setting": "purified protein [6]", "value": 10300, "unit": "M⁻¹ s⁻¹"}]}]}
